Experimental data reported in patent publication US20110118447A1.
Where a chain is given by its changes, count along the chain named. Names and notes keep the numbering of the source.

B1: C5A (XPA23) VH F35D (antibody, V domains shown)
VH: EVQLLESGGGLVQPGGSLRLSCAASGFTFSKYFMDWVRQAPGKGLEWVSVISPSGGMTRYADSVKGRFTISRDNSKNTLYLQMNSLRAEDTAVYYCARVGYGGNSDYWGQGTLVTVSS
VL: DIQMTQSPSSVSASVGDRLTIICRASQDINRWLAWYQQTPGNAPKLLIHSATSLQSGVPSRFSGSGSGTDFTLTINSLQPEDFATYYCQQADSFPLTFGGGTKVEIK
B2: C5A (XPA23) VH S52T (antibody, V domains shown)
VH: B1 VH with D35F, S52T
VL: B1 VL
B3: C5A (XPA23) VH P53S (antibody, V domains shown)
VH: B1 VH with D35F, P53S
VL: B1 VL
B4: C5A (XPA23) VH V50T (antibody, V domains shown)
VH: B1 VH with D35F, V50T
VL: B1 VL
B5: C5A (XPA23) VH F33G (antibody, V domains shown)
VH: B1 VH with F33G, D35F
VL: B1 VL
B6: C5A (XPA23) VH I51S (antibody, V domains shown)
VH: B1 VH with D35F, I51S
VL: B1 VL
B7: C5A (XPA23) VH F35Y (antibody, V domains shown)
VH: B1 VH with D35Y
VL: B1 VL
B8: C5A (XPA23) VH F33W (antibody, V domains shown)
VH: B1 VH with F33W, D35F
VL: B1 VL
B9: C5A (XPA23) VH I51Q (antibody, V domains shown)
VH: B1 VH with D35F, I51Q
VL: B1 VL
B10: C5A (XPA23) VH I51N (antibody, V domains shown)
VH: B1 VH with D35F, I51N
VL: B1 VL
B11: C5A (XPA23) VH Y32G (antibody, V domains shown)
VH: B1 VH with Y32G, D35F
VL: B1 VL
B12: C5A (XPA23) VH P53Q (antibody, V domains shown)
VH: B1 VH with D35F, P53Q
VL: B1 VL
B13: C5A (XPA23) VH P53K (antibody, V domains shown)
VH: B1 VH with D35F, P53K
VL: B1 VL
B14: C5A (XPA23) VH F33V (antibody, V domains shown)
VH: B1 VH with F33V, D35F
VL: B1 VL
B15: C5A (XPA23) VH Y32L (antibody, V domains shown)
VH: B1 VH with Y32L, D35F
VL: B1 VL
B16: C5A (XPA23) VH K31F (antibody, V domains shown)
VH: B1 VH with K31F, D35F
VL: B1 VL
B17: C5A (XPA23) VH I51T (antibody, V domains shown)
VH: B1 VH with D35F, I51T
VL: B1 VL
B18: C5A (XPA23) VH V50N (antibody, V domains shown)
VH: B1 VH with D35F, V50N
VL: B1 VL
B19: C5A (XPA23) VH Y32P (antibody, V domains shown)
VH: B1 VH with Y32P, D35F
VL: B1 VL
B20: C5A (XPA23) VH P53N (antibody, V domains shown)
VH: B1 VH with D35F, P53N
VL: B1 VL
B21: C5A (XPA23) VH K31L (antibody, V domains shown)
VH: B1 VH with K31L, D35F
VL: B1 VL
B22: C5A (XPA23) VH I51R (antibody, V domains shown)
VH: B1 VH with D35F, I51R
VL: B1 VL
B23: C5A (XPA23) VH I51D (antibody, V domains shown)
VH: B1 VH with D35F, I51D
VL: B1 VL
B24: C5A (XPA23) VH I51H (antibody, V domains shown)
VH: B1 VH with D35F, I51H
VL: B1 VL
B25: C5A (XPA23) VH F33A (antibody, V domains shown)
VH: B1 VH with F33A, D35F
VL: B1 VL
B26: C5A (XPA23) VH F33L (antibody, V domains shown)
VH: B1 VH with F33L, D35F
VL: B1 VL
B27: C5A (XPA23) VH F33I (antibody, V domains shown)
VH: B1 VH with F33I, D35F
VL: B1 VL
B28: C5A (XPA23) VH Y32F (antibody, V domains shown)
VH: B1 VH with Y32F, D35F
VL: B1 VL
B29: C5A (XPA23) VH F35K (antibody, V domains shown)
VH: B1 VH with D35K
VL: B1 VL
B30: C5A (XPA23) VH P53E (antibody, V domains shown)
VH: B1 VH with D35F, P53E
VL: B1 VL
B31: C5A (XPA23) VH Y32V (antibody, V domains shown)
VH: B1 VH with Y32V, D35F
VL: B1 VL
B32: C5A (XPA23) VH I51K (antibody, V domains shown)
VH: B1 VH with D35F, I51K
VL: B1 VL
B33: C5A (XPA23) VH I51Y (antibody, V domains shown)
VH: B1 VH with D35F, I51Y
VL: B1 VL
B34: C5A (XPA23) VH K31W (antibody, V domains shown)
VH: B1 VH with K31W, D35F
VL: B1 VL
B35: C5A (XPA23) VH F35N (antibody, V domains shown)
VH: B1 VH with D35N
VL: B1 VL
B36: C5A (XPA23) VH F35T (antibody, V domains shown)
VH: B1 VH with D35T
VL: B1 VL
B37: C5A (XPA23) VH F33P (antibody, V domains shown)
VH: B1 VH with F33P, D35F
VL: B1 VL
B38: C5A (XPA23) VH I51E (antibody, V domains shown)
VH: B1 VH with D35F, I51E
VL: B1 VL
B39: C5A (XPA23) VH F35S (antibody, V domains shown)
VH: B1 VH with D35S
VL: B1 VL

Key:
[1] = target: binding partner of C5A (XPA23); test: Biacore
[2] = target: binding partner of C5A (XPA23); test: Biacore, K-off
[3] = target: binding partner of C5A (XPA23); test: Biacore K-off

Binder | fold affinity vs original [1] | fold difference in affinity vs original [2] | fold difference in affinity vs original [1] | fold difference in affinity vs original [3]
B1 | 0.06 fold | 0.06 fold |  | 
B2 |  | 0.04 fold | 0.04 fold | 
B3 | 0.03 fold | 0.03 fold |  | 
B4 |  | 0.03 fold | 0.03 fold | 
B5 |  |  | 0.76 fold | 0.76 fold
B6 | 0.69 fold | 0.69 fold |  | 
B7 | 0.85 fold | 0.85 fold |  | 
B8 | 0.79 fold |  |  | 0.79 fold
B9 | 0.83 fold | 0.83 fold |  | 
B10 | 0.68 fold | 0.68 fold |  | 
B11 |  |  | 1 fold | 1 fold
B12 | 0.03 fold | 0.03 fold |  | 
B13 | 0.04 fold | 0.04 fold |  | 
B14 |  |  | 0.76 fold | 0.76 fold
B15 |  |  | 0.75 fold | 0.75 fold
B16 | 0.05 fold |  |  | 0.05 fold
B17 |  | 0.86 fold | 0.86 fold | 
B18 | 0.03 fold | 0.03 fold |  | 
B19 |  |  | 0.68 fold | 0.68 fold
B20 | 0.06 fold | 0.06 fold |  | 

Binder | fold affinity vs original [1] | fold difference in affinity vs original [2] | fold difference in affinity vs original [1] | fold difference in affinity vs original [3]
B21 |  |  | 1.08 fold | 1.08 fold
B22 | 0.1 fold | 0.1 fold |  | 
B23 | 0.07 fold | 0.07 fold |  | 
B24 | 0.08 fold | 0.08 fold |  | 
B25 |  |  | 0.75 fold | 0.75 fold
B26 |  |  | 0.88 fold | 0.88 fold
B27 |  |  | 0.75 fold | 0.75 fold
B28 | 0.75 fold |  |  | 0.75 fold
B29 | 0.68 fold | 0.68 fold |  | 
B30 | 0.03 fold | 0.03 fold |  | 
B31 |  |  | 1.07 fold | 1.07 fold
B32 | 0.11 fold | 0.11 fold |  | 
B33 | 1.75 fold | 1.75 fold |  | 
B34 | 0.84 fold |  |  | 0.84 fold
B35 | 0.86 fold | 0.86 fold |  | 
B36 |  | 0.74 fold | 0.74 fold | 
B37 |  |  | 0.91 fold | 0.91 fold
B38 | 0.73 fold | 0.73 fold |  | 
B39 | 0.09 fold | 0.09 fold |  | 
